Data published in patent US20260193378A1.

Columns and labels:
[1] = target: CD19-targeting first-generation 19z1 CAR; test: flow cytometry on CAR+ PG13 fibroblasts, FL2-H PE against FL1-H FITC (no staining), live gate, 7308 events; lower left panel, sample line '19z1-19E9-PE 1 to 1000', same position as 19z1 in FIG. 18A and 18C; first panel (PG13 sample line) in the same gate: 0
[2] = target: first-generation PSMA-targeting Pz1 CAR; test: flow cytometry on CAR+ PG13 fibroblasts, FL2-H PE against FL1-H FITC (no staining), live gate, 9029 events; lower right panel, taken as Pz1 from the panel order of FIG. 18A and 18C; first panel (PG13 sample line) in the same gate: 0
[3] = target: CD19-targeting second-generation 1928z CAR; test: flow cytometry on PG13 fibroblasts expressing the 1928z CAR (panel title '19-28z1 cells', sample line '1928z 1-12D11-H'), 12D11 detected with anti-hamster IgG FITC, FL1-H FITC against FL2-H PE, live gate, 9569 events; parental PG13 cells in the same gate: 0.85
[4] = target: first-generation PSMA-targeting Pz1 CAR; test: flow cytometry on PG13 fibroblasts expressing the Pz1 CAR (panel title 'PZ1', sample line 'PZ1-12D11-H'), 12D11 detected with anti-hamster IgG FITC, FL1-H FITC against FL2-H PE, live gate, 9102 events; parental PG13 cells in the same gate: 0.85
[5] = target: CD19-targeting first-generation 19z1 CAR; test: flow cytometry on PG13 fibroblasts expressing the 19z1 CAR (panel title '19z1', sample line '19z 1-12D11-H'), 12D11 detected with anti-hamster IgG FITC, FL1-H FITC against FL2-H PE, live gate, 7334 events; parental PG13 cells in the same gate: 0.85

gate frequency (percent of live events in the PE-positive gate) [1]	gate frequency (percent of live events in the PE-positive gate) [2]	gate frequency (percent of live events in the FITC-positive gate) [3]	gate frequency (percent of live events in the FITC-positive gate) [4]	gate frequency (percent of live events in the FITC-positive gate) [5]	Binder
99.2	0.011				19E3 monoclonal antibody (antibody, V domains shown) VH: EVQLVESGGGLVQTGKSLKLSCEASGFTFSDFDMNWVRQAPGKGLEWVAYINGGSGVIFYADAVKGRFTISRDNAKNLLFLQMNNLKSEDSAMYYCAREELGRRYYFDYWGQGTMVTVSS VL: SQPVLTQSPSASASLSGSVKLTCTLSSEHSSYNIAWYQQHPDKAPKYVMYLKSDGSHFKGDGIPDRFSGSSSGAHRYLSISNVQSEDDATYFCGAGYTISGQYGYVFDSGTQLTVLG
		67.9	76.4	96.3	12D11 monoclonal antibody (antibody, V domains shown) VH: AVRLLESGGGLVKPEGALKLSCVASGFDLSDYFMGWVRQAPGKGLEWVAHIYPQSYDYATYYSGSVQGRFTISRDDSRSMVYLQMNNLRTEDTATYYCTKDGDVGFWGQGTMVTVSS VL: DIQVTQSPTLLSASLGDKVTINCLASQDISNELNWYQQKSGQSPTLLIYNGKNLQSGVPSRFSGQYSGRSFTISINNVEPEDVATYFCLQHYSFPLTFGDGSKLEMKR
